Measurements reported in patent publication CN117321082A (APOCOR LTD, dated 2023).

Assays:
[1] = target: T1, 全长人KLRG1 (full-length human KLRG1 on stably transfected CHOK1 cells) (human, UniProt Q96E93 1-195); assay: FACS competition on CHOK1-hKLRG1 cells; competitor 0.3 uM human E-cadherin-ECD-FC-biotin, detected with streptavidin-Alexa 488
T1 construct: whole, on cells; the cell assays used full-length protein; also called hKLRG1; CHOK1-hKLRG1
T1 sequence (looked up): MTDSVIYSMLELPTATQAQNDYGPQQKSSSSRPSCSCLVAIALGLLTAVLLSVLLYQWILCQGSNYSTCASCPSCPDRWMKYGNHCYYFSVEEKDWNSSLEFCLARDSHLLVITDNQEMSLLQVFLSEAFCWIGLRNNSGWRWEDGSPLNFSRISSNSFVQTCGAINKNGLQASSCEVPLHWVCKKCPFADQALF

[2] = target: T1, 全长人KLRG1 (full-length human KLRG1 on …); assay: FACS competition on CHOK1-hKLRG1 cells; competitor 0.3 uM human E-cadherin-ECD-FC-biotin (Example 7)
[3] = target: T1, 全长人KLRG1 (full-length human KLRG1 on …); assay: FACS on CHOK1 cells expressing full-length human KLRG1, detected with anti-human IgG-Alexa 488

IC50 [1]: 8.05 nM | IC50 [2]: 5.3 nM | EC50 [3]: 1.33 nM
B1: PA015 (antibody, human IgG1, kappa, V domains shown)
VH: QVTLRESGPALVKPTQTLTLTCTVSGFSLSTFGMGVGWIRQPPGKALEWLAHIWWDDDKWYELALKSRLTISKDTSKNQVVLTITNMDPVDTATYYCARVIYYGSRSAYYSMDYWGQGTTVTVSS
VL: DVVMTQTPLSLSVTPGQPASISCKSSQSIVHSNAHTYLEWYLQKPGQSPQLLIYKVSNRFSGVPDRFSGSGSGTDFTLKISRVEAEDVGVYYCFQGSHVPVTFGQGTKLEIKR
notes: also called PA015抗体; 抗KLRG1抗体
